Results taken from patent publication US6482607.

Biological target: SP-Dis-PyCter (Dis-PyCter carrying an amino terminal ER-translocation signal from D. discoideum PsA) (UniProt P02886)
Sequence (P02886 other isoform, or with tags, fused parts or gaps): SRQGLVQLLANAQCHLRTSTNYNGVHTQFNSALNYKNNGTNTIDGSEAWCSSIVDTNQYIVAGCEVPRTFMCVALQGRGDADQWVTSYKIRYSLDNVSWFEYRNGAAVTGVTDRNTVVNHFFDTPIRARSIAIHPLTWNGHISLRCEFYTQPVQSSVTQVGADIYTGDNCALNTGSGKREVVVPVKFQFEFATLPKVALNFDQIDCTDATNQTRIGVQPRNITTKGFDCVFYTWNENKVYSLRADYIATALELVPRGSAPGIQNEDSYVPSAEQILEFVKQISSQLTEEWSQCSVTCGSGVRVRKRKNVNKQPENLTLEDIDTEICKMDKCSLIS

In the case of human thrombin, the “size of the recombinant protein on Western blot after incubation with increasing thrombin (units/ml)” value is reported as “the size of the recombinant protein decreased with increasing thrombin concentrations”.
